The experiment addresses EphA4 Fc (EphA4 receptor extracellular domain fused to a human Fc region). The experiment is described as follows: inhibition of ephrin-A5 AP binding to EphA4.
EphA4 Fc (EphA4 receptor extracellular domain fused to a human Fc region), sequence (Q03137 20-547): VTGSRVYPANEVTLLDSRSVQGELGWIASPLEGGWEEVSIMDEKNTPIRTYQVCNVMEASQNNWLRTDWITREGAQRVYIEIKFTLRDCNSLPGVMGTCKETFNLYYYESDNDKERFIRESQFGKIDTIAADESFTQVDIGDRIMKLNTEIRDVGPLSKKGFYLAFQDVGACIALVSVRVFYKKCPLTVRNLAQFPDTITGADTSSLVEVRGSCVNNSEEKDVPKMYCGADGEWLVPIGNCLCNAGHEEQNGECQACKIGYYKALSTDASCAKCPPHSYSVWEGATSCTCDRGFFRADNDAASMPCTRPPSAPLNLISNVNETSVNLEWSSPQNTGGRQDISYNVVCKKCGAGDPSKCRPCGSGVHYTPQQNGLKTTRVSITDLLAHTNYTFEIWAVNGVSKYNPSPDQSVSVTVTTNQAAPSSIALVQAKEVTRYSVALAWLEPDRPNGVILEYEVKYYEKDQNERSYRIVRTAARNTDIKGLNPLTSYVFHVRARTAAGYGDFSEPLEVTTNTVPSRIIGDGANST
Substance synthetic VTM peptide (…) yielded a concentration that almost completely inhibits ephrin-A5 AP binding of 100 µM.
In the case of synthetic KYL peptide (…) it was 1 µM; in that of synthetic APY peptide (…), 10 µM.

The values above are taken from patent EP1852441B1, “Agents that modulate EPH receptor activity” (The Burnham Institute, priority 2002, dated 2004).
